The text below walks through data of publication PMC12177922, “In Vivo Ribosome-Amplified MetaBOlism, RAMBO, Effect Observed by Real Time Pulse Chase, RTPC, NMR Spectroscopy” (Biochemistry, 2025).

For assay [1], the target named is Pyruvate kinase I from E. coli, PYK-F (E. coli) (UniProt P0AD61).
The target is the same in assay [2]. In words: ribosome titration of enzyme activity (direct 1H NMR kinetic assay); 120 nM PYK-F, ribosomes titrated up to 8 uM; change of initial velocity (pyruvate methyl peak) at 2 mM PEP and 4 mM ADP; 10 mM sodium phosphate pH 7.5, 50 mM KCl, 10 mM MgCl2, 10 °C; one site-specific binding model …; saturation not reached.
The target is the same in assay [3]. The source holds these as a separate data set.
Assay [4] has the same target. The source holds these as a separate data set.

For the substance “Intact 70S ribosomes from E. coli strain MRE600 (from UniProt P60723 1-201; P0AG55 1-177; P0A7R1 1-149; P0AA10 1-142; P0AG44 1-127; P0AG48 1-103; P61175 1-110; P68919 1-94; P0A7L8 1-85; P0A7M9 1-70; P0AG67 1-557; P0A7V3 1-233; P0A7X3 1-130; P0A7S3 1-124; P0A7U7 1-87) (complex)”, in assay [1], the decrease in sum of the influx rates of lactate, ethanol and acetate in living E. coli BL21(DE3) (RTPC-NMR), 2x chloramphenicol against none was determined as 32%. For the same substance, in assay [2], the Kd came to 10 µM. Besides, the kcat of PYK-F (ADP saturation curve) with 2 μM ribosomes against none in assay [3] came out at 10%. The substance further came in with a PYK-F activity (initial velocity, NMR kinetic assay) with 3 μM ribosomes against none in assay [4] of 35%.
